Measurements taken from article PMC7588053, “Cholesterol oxidase from Rhodococcus erythropolis with high specificity toward β-cholestanol and pytosterols” (PLoS ONE, 2020).

Substrate: CC(C)CCC[C@@H](C)[C@H]1CC[C@H]2[C@@H]3CC=C4C[C@@H](O)CC[C@]4(C)[C@H]3CC[C@]12C
Experiment: purified protein
Format: biochemical, Rhodococcus erythropolis
Conditions: O2 as co-substrate, 0-1 mM cholesterol, 50 mM sodium phosphate pH 7.0, 64 mM sodium cholate, 0.34% Triton X-100, 30°C

Row | Protein | Km [µM] | Vmax [µmol/min/mg] | kcat [s⁻¹] | kcat/Km [M⁻¹ s⁻¹]
1 | ChoRII (Rhodococcus erythropolis PR4) (protein, predicted mature enzyme, Tat signal peptide removed (Val-45 given, but 545 aa given would mean start at 44), C-terminal 6xHis kept, pET-21b(+), E. coli Rosetta (DE3) pLysS; precursor 588 aa, mature 59,369 Da; VAO family flavoenzyme (FAD)) VPWGSASTIAPPPGFPSDIPLSQQAYANWSREIMLESVWTATARHSDDVVTLANWAFDNGYTVRAKGTMHGWSPLTVVPGAPSDRVLLVDTMANLNSVVVQHGTPATVTAGAGASIEAILTALEREGLGWANAPAIGELSIAGALAIGAHGATYPAVGETITPGQSYGSLSNLITEITVVAWDEGRNRYGLKTFHRSDDEITAFLTHLGRTFVTSVTLQAGENYRLRCRSFTDIPWQELFAAPGSPGRTYESFVEKSGRVEAIWFPFTQTPWLKVWTPTPVKPPESREVSGPYNYFFSDAIPEEVTTPLGMVAQGLQAATPLFGASQFGAVAAGLALTDTDDLWGWSKDVLFYLRHTTLRVVAGGGAVITKRSNIGRVVHEMTSWLNERMTHYASLGQYPVNMPFEVRLCGVDDSGEVLVDSAGVPDLSAVRPRADRQDWDTAIWMNVVSIPGTAGLPAFLREMERWMVANYSGDYATFRPEWSKGWAFTDQAAYQDDEFLTSTVPATFRAGGDGNWDFALATLDEHDPHRVFSNTFIDRVLPPS | 22.1 ± 0.3 | 0.57 | 0.61 ± 0.11 | 30000 ± 10000
2 | ChoRI (Rhodococcus erythropolis PR4) (protein, predicted mature enzyme, Tat signal peptide removed (from Val-37), C-terminal 6xHis kept, pET-21b(+), E. coli Rosetta (DE3) pLysS; precursor 587 aa, mature 551 aa, 59,590 Da; VAO family flavoenzyme (FAD)) VPAGSSGSAGGPVSTLTPPPAFPEGIALYQQAYQNWSKEIMLDAIWTCSPKTPEDVVRLANWGHANGYTIRPRGAMHGWTPLTIVNGAPVDKVILADTTVHLTGVSVNAGGSPATVTAGPGATLDAITTALQAQGLGFANLPAPGVLTIAGCLAVDAHGAALPAEGEAHVPGQTFGSLSNLVTSLTAVVWNGSEYALETYARSDAAIKPLLTHLGRTFLTSVTLQAAPNYRMRCVSHTDIGWQELFGARGASGRTFEKFVRENGRAEAIWYPFTERPWMKVWSLAPTKPPFSREVTGPYNYIFSDNLPEPVTDMIGQINAGNPGIAPAFGQIMYATTVAGLAATFSNDLWGWSKDVQFYIRATTLRLTEGGGAVITSRANIGQVIHDFTQWFNGRMEYYRSIGQFPLNGPVEIRCCGLDQPSDVEVDSAGAPTISAMRPRPDHPEWDTAIWLNVLGVPGTPGMFAFYREMEQWMRNHYNNNDATFRPEWSKGWAFGPDKPYTDAPIITQGLPQTYRDGVPSSDNWDTANAAYNALDPHKVFSNTFLDQLLP | 22.6 ± 0.5 | 6.4 | 6.8 ± 0.3 | 300000 ± 10000
